Consider 2 molecules from paper PMC12055985 (Nature Communications, 2025).

One assay concerns the target Nb14-Fc (camel). Kind of assay: SPR.
The next assay deals with Nb32-Fc (camel). The experiment in a line: SPR.

B1: HSV-1 gD (aa1-275) with C-terminal His tag (domain or fragment)
chain: KYALADASLKMADPNRFRGKDLPVLDQLTDPPGVRRVYHIQAGLPDPFQPPSLPITVYYAVLERACRSVLLNAPSEAPQIVRGASEDVRKQPYNLTIAWFRMGGNCAIPITVMEYTECSYNKSLGACPIRTQPRWNYYDSFSAVSEDNLGFLMHAPAFETAGTYLRLVKINDWTEITQFILEHRAKGSCKYALPLRIPPSACLSPQAYQQGVTVDSIGMLPRFIPENQRTVAVYSLKIAGWHGPKAPYTSTLLPPELSETPNATQPELAPEDPED
Consider B1, for which the figures for the Kd with Nb14-Fc and with Nb32-Fc were 1.14 nM and 0.0367 nM, respectively.

B2: HSV-2 gD (aa1-275) with C-terminal His tag (domain or fragment)
chain: KYALADPSLKMADPNRFRGKNLPVLDQLTDPPGVKRVYHIQPSLEDPFQPPSIPITVYYAVLERACRSVLLHAPSEAPQIVRGASDEARKHTYNLTIAWYRMGDNCAIPITVMEYTECPYNKSLGVCPIRTQPRWSYYDSFSAVSEDNLGFLMHAPAFETAGTYLRLVKINDWTEITQFILEHRARASCKYALPLRIPPAACLTSKAYQQGVTVDSIGMLPRFIPENQRTVALYSLKIAGWHGPKPPYTSTLLPPELSDTTNATQPELVPEDPED
Turning to B2, the Kd with Nb14-Fc is 0.0831 nM; with Nb32-Fc, 0.0434 nM.
